According to patent US10973882B2, “Methods for reducing severity of pulmonary fibrosis” (CEDARS-SINAI MEDICAL CENTER, priority 2017, dated 2021):

Columns and labels:
[1] = test system: CD24^−Sca-1^−AEC2s; assay: 3D Matrigel organoid culture, colony-forming efficiency (CFE) of mouse AEC2s; format: cell-based
Description: Flow-sorted mouse CD24^−Sca-1^−AEC2s or human HTII-280^+AEC2s were cultured in Matrigel/medium (1:1) mixture in the presence of MLg2908 lung fibroblast cells (Barkauskas et al., 2013; Chen et al., 2012). 100 μl Matrigel/medium mix containing 3×10^3 type 2 cells and 2×10^5 MLg2908 cells were plated into each 0.4-μm Transwell insert of a 24-well plate. 400 μl of medium was added in the lower chambers. Medium was described previously (Chen et al., 2012). Matrigel was from BD Biosciences (catalog 354230). Fresh medium was changed every other day. Cultures were maintained in a humidified 37° C. and 5% CO2 incubator. Colonies were visualized with a Zeiss Axiovert40 inverted fluorescent microscope (Carl Zeiss AG, Oberkochen, Germany). The number of colonies with a diameter of ≥50 μm from each insert was counted, and the colony-forming efficiency (CFE) was determined by the number of colonies in each culture as a percentage of the number of input epithelial cells at day 12 after plating.
For culture with IL-6 protein or anti-IL-6, sorted type 2 cells were pretreated with IL-6 protein or anti-IL-6 at room temperature for 30 minutes. Type 2 cells were then mixed with fibroblasts in the Matrigel/medium mixture and plated into Transwell inserts. The same concentration of IL-6 protein or IL-6 antibody was added into the Matrigel/medium mix and into the medium placed in the lower chambers.
Healon GV was purchased from Abbott Medical Optics (Abbot Park, Ill.). Pep-1 was synthesized by Sigma-Genosys and dissolved in DMSO to form a 100 μg/μl stock solution as described previously (Jiang et al., 2005; Mummert et al., 2000). For 3D matrigel culture, sorted type 2 cells were pretreated with Healon (200 μg/ml) or pep-1 (125 μg/ml) at room temperature for 30 minutes. Higher concentrations of Healon (400 μg/ml, 600 μg/ml, and 800 μg/ml) were used for 3D matrigel culture of IPF AEC2s. Cells were then mixed with fibroblasts in Matrigel/medium mix and plated into Transwell inserts. The same concentrations of Healon or Pep-1 were added into the Matrigel/medium mix and medium that were placed in the lower chambers.
The cell-permeable STAT3 inhibitor S3I-201 was purchased from Santa Cruz Biotechnology (Dallas, Tex.) and dissolved in DMSO to form stock solution of 10 mg/ml (MW 365.36). The dose for treating type 2 cells in colony-formation assays was 50 μM and 100 μM. The same amounts of DMSO were added into the control wells. Flow-sorted type 2 cells were pretreated with the STAT3 inhibitor at 50 μM or 100 μM concentrations, and with IL-6 protein (100 ng/ml), at room temperature for 30 minutes. Cells were then mixed with fibroblasts in Matrigel/medium mix and plated into Transwell inserts. […]

[2] = test system: human HTII-280^+AEC2s; assay: 3D matrigel culture, colony-forming efficiency (CFE) of human AEC2s; format: cell-based; conditions: AEC2s sorted from diseased (IPF) lung; rIL-6 200 ng/ml vs medium without exogenous IL-6; FIG. 13H
Description: (§1) Recombinant mouse IL-6 protein (Catalog 406-ML/CF, R&D Systems) was supplied in 50 mM sodium acetate and 1 mM EDTA and was diluted (1:5 or more depending on the stock concentration) in sterile PBS, and 2 μg per mouse in 50 μl was injected intramuscularly at 1 day before and at 1 day and 3 days after bleomycin instillation. Control buffer was made of the same volume of 50 mM sodium acetate and 1 mM EDTA solution and PBS. Mouse anti-IL-6 (MAB406, Clone #MP5-20F3, R&D Systems) or control IgG was reconstituted with sterile PBS. 250 μg per mouse in 250 μl sterile PBS was injected intraperitoneally to mice at 1 day before and at 1 day and 3 days after bleomycin instillation. Recombinant human IL-6 protein (Catalog 206-IL-010, R&D Systems) was reconstituted with sterile PBS containing 0.1% BSA. 200 ng/ml was used for organoid culture of human AEC2s.
Single-cell suspensions from human lungs were isolated as described (Barkauskas et al., 2013). The procedures of staining the cells for flow cytometry and data analysis were described previously (Barkauskas et al., 2013; Liang et al., 2012). […] Flow cytometry was performed using a FACSCanto II flow cytometer and FACSAria III sorter (BD Immunocytometry Systems, San Jose, Calif.) and analyzed using Flow Jo 9.6.4 software (Tree Star, Ashland, Oreg.). […]

[3] = test system: bleomycin-induced lung injury; assay: Bleomycin lung injury model with rIL-6 or anti-IL-6 administration; format: in vivo, mouse
Excerpt: Mice. Tlr4^−/− and Tlr2^−/− mice were obtained (Takeuchi et al., 1999; Kawai et al., 1999), Has2^flox/+ mice were generated using the Cre-loxP system (Li et al., 2011; Matsumoto et al., 2009), and SFTPC-Cre mice, SFTPC-CreER mice, SFTPC-GFP mice, and Rosa-Tomato^flox/flox mice were generated (Barkauskas et al., 2013; Chen et al., 2012; Eblaghie et al., 2006). All mice were backcrossed on the C57Bl/6J background for more than six generations. […] Has2^flox/flox homozygous mice were crossed with SFTPC-Cre^+ mice to generate SFTPC-Cre^+;Has2^flox/flox mice. Rosa-Tomato^flox/flox mice were crossed with SFTPC-CreER mice to generate SFTPC-CreER^+;Rosa-Tomato^flox/flox mice. Animals were randomly assigned to treatment groups, and they were age- and sex-matched. 8- to 12-week-old mice of both sexes (male:female ratio ˜1:1) were used in the bleomycin lung injury model. Animals for experiments were selected by genotype, and no blinding was performed.
Bleomycin instillation and BAL procedures were described previously (Dong et al., 2015; Lovgren et al., 2011). Under anesthesia, the trachea was surgically exposed. 1.25-5 U/kg bleomycin (Hospira, Lake Forest, Ill.) in 25 μl PBS was instilled into the mouse trachea with a 25-G needle inserted between the cartilaginous rings of the trachea. Control animals received saline alone. The tracheostomy site was sutured, and the animals were allowed to recover. Mice were euthanized at different time points, and lung tissue and BAL fluid were collected for experiments. 0.8-ml aliquots of PBS were used for lavage. Cell-free BAL fluid was stored in a −80° C. freezer for cytokine measurement.
Collagen contents in mouse lungs were measured using a conventional hydroxyproline method (Jiang et al., 2004). Lung tissues were vacuum-dried and hydrolyzed with 6 N hydrochloride acid at 120° C. overnight. Hydroxyproline content was expressed as ‘μg per lung’, unless specified otherwise. The ability of the assay to completely hydrolyze and recover hydroxyproline from collagen was confirmed using samples containing known amounts of purified collagen.
as §1
Single-cell suspensions from mouse lungs were isolated as described (Chen et al., 2012). Mouse lungs were perfused with 5 ml PBS and digested with elastase (4 U/ml; Worthington Biochemical Corporation) and DNase I (100 U/ml; Sigma) to obtain single-cell suspensions for flow cytometry. Primary antibodies to CD31, CD34, CD45, Sca-1, and CD24, and secondary antibody anti-streptavidin were all from eBioscience (San Diego, Calif.). Mouse anti-EpCAM (G8.8, catalog 118215) and anti-Ki67 (catalog 652403) were from BioLegend (San Diego, Calif.). 7-AAD was from BD Biosciences (San Diego, Calif.).
The procedures of staining the cells for flow cytometry and data analysis were described previously (Chen et al., 2012; Liang et al., 2012). In brief, cells were resuspended in Hank's balanced saline solution supplemented with 2% FBS (FBS), 10 mM HEPES, 0.1 mM EDTA, 100 IU/ml penicillin, 100 μg/ml streptomycin (HBSS+ buffer). […]

[4] = bleomycin-treated Tlr4^−/− mice, rIL-6 vs control buffer, FIG. 10G

Row | Molecule | rIL6-promoted colony formation of CD24^−Sca-1^−AEC2s ([1]; STAT3 inhibitor 50 μM or 100 μM with IL-6 protein 100 ng/ml, FIG. 11C) | CFEs of HTII-280^+AEC2s [2] | hydroxyproline content in the lungs ([3]; Tlr4^−/− mice, bleomycin and rIL-6 vs bleomycin alone, FIG. 10H) | AEC2 apoptosis ([3]; bleomycin day 7 Tlr4^−/− mice, rIL-6 vs buffer, FIG. 11D) | inflammatory cell infiltration (BAL cell counts) ([3]; bleomycin day 7 Tlr4^−/− mice, rIL-6 vs buffer, FIG. 11E) | hydroxyproline content in the lungs ([3]; bleomycin-injured SFTPC-Cre;Has2^flox/flox mice, rIL-6 vs buffer, FIG. 10I) | survival ([3]; bleomycin-injured Tlr4^−/− mice, rIL-6 vs buffer, 21 days, FIG. 11F) | survival / mortality ([3]; bleomycin-injured WT mice, anti-IL-6 250 μg per mouse i.p. vs control IgG (FIG. 11G), rIL-6 vs bleomycin alone (data not shown)) | hydroxyproline levels ([3]; bleomycin-injured WT mice, anti-IL-6 vs control IgG, rIL-6 vs bleomycin alone, data not shown) | recovery of CD24^−Sca-1^−AEC2s ([3]; bleomycin-treated Tlr4^−/− mice, rIL-6 2 μg per mouse i.m. day −1, 1, 3, vs control buffer, FIG. 10G) | Ki67 staining of CD24^−Sca-1^−AEC2s [3, 4] | concentration of total BALF proteins [3, 4] | CFEs of CD24^−Sca-1^−AEC2s ([1]; AEC2s from bleomycin-treated SFTPC-Cre;Has2^flox/flox mice, rIL-6 100 ng/ml, FIG. 10F) | CFEs of CD24^−Sca-1^−AEC2s ([1]; AEC2s from bleomycin-treated Tlr4^−/− mice, rIL-6 100 ng/ml, FIG. 10E) | CFEs of CD24^−Sca-1^−AEC2s ([1]; AEC2s from bleomycin-treated WT mice, dose-dependent, vs control IgG or medium, FIGS. 10C-D)
1 | Cc1ccc(S(=O)(=O)OCC(=O)Nc2ccc(C(=O)O)c(O)c2)cc1 [S3I-201, reference compound] | abolished | – | – | – | – | – | – | – | – | – | – | – | – | – | –
2 | rIL-6: Recombinant mouse IL-6 protein (Catalog 406-ML/CF, R&D Systems), used for mouse AEC2s and in mice (protein, UniProt P08505 25-211, looked up) Interleukin-6: FPTSQVRRGDFTEDTTPNRPVYTTSQVGGLITHVLWEIVEMRKELCNGNSDCMNNDDALAENNLKLPEIQRNDGCYQTGYNQEICLLKISSGLLEYHSYLEYMKNNLKDNKKDKARVLQRDTETLIHIFNQEVKDLHKIVLPTPISNALLTDKLESQKEWLRTKTIQFILKSLEEFLKVTLRSTRQT | – | markedly increased | lower | did not affect | did not affect | lower hydroxyproline content | increased survival | did not alter | did not alter | more recovery | greater Ki67 staining | lower concentration | promoted | promoted | increased
